Legend:
Test in all cases: NanoBRET
[1] = target: HaloTag-fused and NanoLuc-fused Gag-MA-S9A (NanoBRET pair); conditions: living cells; n = 6; mean ± SE; WMAA signal subtracted; parent: est. 100; read off a plot
[2] = target: HaloTag-fused and NanoLuc-fused Gag-CA-WM184/185AA (NanoBRET pair); conditions: living cells; n = 6; mean ± SE; WMAA signal subtracted; parent: est. 100; read off a plot
[3] = target: HaloTag-fused and NanoLuc-fused Gag-MA-S9F (NanoBRET pair); conditions: living cells; n = 6; mean ± SE; WMAA signal subtracted; parent: est. 100; read off a plot
[4] = target: HaloTag-fused and NanoLuc-fused Gag-MA-S9I (NanoBRET pair); conditions: living cells; n = 6; mean ± SE; WMAA signal subtracted; parent: est. 100; read off a plot
[5] = target: HaloTag-fused and NanoLuc-fused Gag-MA-G2A (NanoBRET pair); conditions: living cells; n = 6; mean ± SE; WMAA signal subtracted; parent: est. 100
[6] = target: HaloTag-fused and NanoLuc-fused Gag-MA-S9W (NanoBRET pair); conditions: living cells; n = 6; mean ± SE; WMAA signal subtracted; parent: est. 100; read off a plot

## HaloTag-fused Gag and NanoLuc-fused Gag, wild type (NanoBRET pair) S9A
[1]
  percent of parent: 72%

## HaloTag-fused Gag and NanoLuc-fused Gag, wild type (NanoBRET pair) W184A; M185A
[2]
  percent of parent: 0%

## HaloTag-fused Gag and NanoLuc-fused Gag, wild type (NanoBRET pair) S9F
[3]
  percent of parent: 8.6%

## HaloTag-fused Gag and NanoLuc-fused Gag, wild type (NanoBRET pair) S9I
[4]
  percent of parent: 68%

## HaloTag-fused Gag and NanoLuc-fused Gag, wild type (NanoBRET pair) G2A
[5]
  percent of parent: 0%

## HaloTag-fused Gag and NanoLuc-fused Gag, wild type (NanoBRET pair) S9W
[6]
  percent of parent: 42%
